Assay results: the supplement of paper PMC11780869

Test system: Bacillus subtilis
Experiment: cleaved RNA product abundance (RNA/gDNA barcode ratio) relative to median wild-type variant (ratio to wild type); higher = more accumulation of the downstream cleavage product
Outline: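 Cleaved product abundance for each construct is its RNA-to-gDNA barcode ratio, scaled to the median construct carrying the unmutated site. Cleaved RNA was isolated on a gel, reverse transcribed and barcode-sequenced, with genomic DNA barcodes sequenced alongside and UMIs collapsed. The reporters were truncated aprE or tetM mRNAs with barcoded, mutagenized RNase Y cleavage-site windows integrated into the B. subtilis chromosome, and cultures grew in LB at 37°C from OD600 0.0003 to 0.3.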

[1] = experiment (reporter, strain, medium): exp 4a: truncated aprE reporter, strain BJT201 with 2% xylose (RNase J1 expressed), cleavage site: cggR-gapA (positions -7 to +36 mutated)
[2] = experiment (reporter, strain, medium): exp 2b: truncated aprE reporter, strain BJT200, cleavage site: cggR-gapA (positions -7 to +36 mutated)
[3] = experiment (reporter, strain, medium): exp 6: tetM reporter, strain 168, cleavage site: cggR-gapA (positions -7 to +36 mutated)
[4] = experiment (reporter, strain, medium): exp 8a: truncated aprE reporter, strain BJT201 with 2% xylose (RNase J1 expressed), cleavage site: glnRA (positions -5 to +31 mutated)

ACAGACGAAGGAGCCGCAAAGAAGTTATTAAAGGATGAATAATCCCTCAATATATATATCTCTCACTTATTTAAA
cleaved RNA product abundance [1]: 0.16

ACAGACGAAGGAGCCGCAAAGAACTTATTAAGGGATGAATAATCCCTCGATATAAATATCTCTCACTTATTTAAA
cleaved RNA product abundance [1]: 0.269

ACAGACGAAGGAGCCGCAAAGAAGTTATTAAGGGATGAATAATCCCTCAAAAAAAATATCTCTCACTTATTTAAA
cleaved RNA product abundance [1]: 0.0713

ACAGACGAAGGAGCCGCAAAGAAGTAATTAAGGGATGAATAATCCCTGAATATAAATATCTCTCACTTATTTAAA
cleaved RNA product abundance [1]: 0.253

ACAGACGAAGGAGCCGCAAAGAAGTTATTAAGGGATGCATAATCCCTCAATATAAACATCTCTCACTTATTTAAA
cleaved RNA product abundance [1]: 0.545

ACAGACGAAGGAGCCGCAAAGAAGTTATTAAGGGATGAATAACCCCTCAATATAAATATCTCTCACTTATTTAAA
cleaved RNA product abundance [2]: 0.56
cleaved RNA product abundance [1]: 0.609
cleaved RNA product abundance [3]: 0.408

ACAGACGAAGGAGCCGCAATGAAGTTATTAAGGGATGAATAATACCTCAATATAAATATCTCTCACTTATTTAAA
cleaved RNA product abundance [1]: 0.138

ACAGACGAAGGAGCCGCAAAGTAGTTATTAAGGGATGAATAATCCCTCAATCTAAATATCTCTCACTTATTTAAA
cleaved RNA product abundance [1]: 0.0783

ACAGACGAAGGAGCCGCAAAGGAATTATTAAGGGATGAATAATCCCTCAATATAAATATCTCTCACTTATTTAAA
cleaved RNA product abundance [1]: 0.671

CGACATGTCCCGCTTCTTTCATTAATCCGTTTTCAACTGTTTTGCTATATACATTTACCTTTTAAGAGGAGGAAT
cleaved RNA product abundance [4]: 0.247

ACAGACGAAGGAGCCGCAAAGAAGTAATTAAGGGATGAATAATCCCTCACTATAAATATCTCTCACTTATTTAAA
cleaved RNA product abundance [2]: 0.135
cleaved RNA product abundance [1]: 0.168

ACAGACGAAGGAGCCGCACAGAAGTTATTAAGTGATGAATAATCCCTCAATATAAATATCTCTCACTTATTTAAA
cleaved RNA product abundance [2]: 0.106
cleaved RNA product abundance [1]: 0.126

ACAGACGAAGGAGCCGCAAAGAAGTTATTAAGGCATGAATAAACCCTCAATATAAATATCTCTCACTTATTTAAA
cleaved RNA product abundance [1]: 0.136

ACAGACGAAGGAGCCGCAAAGAAGTTATAAAGGGATGAATAATCCCTTAATATAAATATCTCTCACTTATTTAAA
cleaved RNA product abundance [2]: 0.56
cleaved RNA product abundance [1]: 0.593

ACAGACGAAGGAGCCGCAAAGAAGTTATTAAGGGATGAATAATCCCTCAATATAAAAATGTCTCACTTATTTAAA
cleaved RNA product abundance [1]: 1.17

CGACATGTCCCGCTTCTTTCATTACTCCGTTAGCAACTGTGTTGCTATATACATTTACCTTTTAAGAGGAGGAAT
cleaved RNA product abundance [4]: 0.327

ACAGACGAAGGAGCCGCAAAGAAGTTATAAAGGGATGAAAAATCCCTCAATATAAATATCTCTCACTTATTTAAA
cleaved RNA product abundance [1]: 0.4

ACAGACGAAGGAGCCGCAAAGAAGTAATTAAGCGATGAATAATCCCTCAATATAAATATCTCTCACTTATTTAAA
cleaved RNA product abundance [1]: 0.157

ACAGACGAAGGAGCCGCAAACAAGTTATTAAGAGATGAATAATCCCTCAATATAAATATCTCTCACTTATTTAAA
cleaved RNA product abundance [2]: 0.0959
cleaved RNA product abundance [1]: 0.118

ACAGACGAAGGAGCCGCAAAGAAGTTATTAATGGATGAATAATCACTTAATATAAATATCTCTCACTTATTTAAA
cleaved RNA product abundance [1]: 0.194

ACAGACGAAGGAGCCGCAAAGAAGTTATTAAGGGATAAATAATCCCTCAAGATAAATATCTCTCACTTATTTAAA
cleaved RNA product abundance [2]: 0.18
cleaved RNA product abundance [1]: 0.29

ACAGACGAAGGAGCCGCAAAGAAGTTATTAAGAGATGAATAATCCCTCAATTTAAATATCTCTCACTTATTTAAA
cleaved RNA product abundance [2]: 0.0971
cleaved RNA product abundance [1]: 0.0573

CGACATGTCCCGCTTCTTTCATTAATCCGTTAGTAAATGTTTTGCTATATACATTTACCTTTTAAGAGGAGGAAT
cleaved RNA product abundance [4]: 0.205

ACAGACGAAGGAGCCGCAAAAAAGTTATTAAGGAATGAACAATCCCTCAATATAAATATCTCTCACTTATTTAAA
cleaved RNA product abundance [1]: 0.182

ACAGACGAAGGAGCCGCAAAGAAATTATTAAGGGAAGAATAATCCCTCAATATAAATATCTCTCACTTATTTAAA
cleaved RNA product abundance [2]: 0.394
cleaved RNA product abundance [1]: 0.599

ACAGACGAAGGAGCCGCAAAGAAGTTATTAATTGATGAATAATCCCTCAATATAAATATCTCTCACTTATTTAAA
cleaved RNA product abundance [2]: 0.0997
cleaved RNA product abundance [1]: 0.0964

ACAGACGAAGGAGCCGCAAAGAAGTTATTAAGGGCTGAATATTCCCTCAATATAAATATCTCTCACTTATTTAAA
cleaved RNA product abundance [2]: 0.228
cleaved RNA product abundance [1]: 0.16

ACAGACGAAGGAGCCGCAAAGAAGTTATTAAGGGACGAATAATCTCTCAATATAAATATCTCTCACTTATTTAAA
cleaved RNA product abundance [2]: 0.139

CGACATGTCCCGCTTCTTTCATTAATCCGTTAGCAACTGTTTTGCCATATACGTTTACCTTTTAAGAGGAGGAAT
cleaved RNA product abundance [4]: 0.0858

ACAGACGAAGGAGCCGCAAAGAAGTTATTAAGGGATGGATAATACCTCAATATAAATATCTCTCACTTATTTAAA
cleaved RNA product abundance [1]: 0.103

ACAGACGAAGGAGCCGCAAAGAAATTATTAAGAGATGAATAATCCCTCAAAATAAATATCTCTCACTTATTTAAA
cleaved RNA product abundance [2]: 0.114

CGACATGTCCCGCTTCTTTCATTAATCCGTTAGCAACTGTTTTGCTATAAACATTTACCTTTTAAGAGGAGGAAT
cleaved RNA product abundance [4]: 0.603

ACAGACGAAGGAGCCGCAAAGAAGTTATTAAGGTATGAATAATCCTTCAATATAAATATCTCTCACTTATTTAAA
cleaved RNA product abundance [2]: 0.145
cleaved RNA product abundance [1]: 0.126

ACAGACGAAGGAGCCGCAAAGATGATATTAAGGGATGAATAATCCCTCAATATAAATATCTCTCACTTATTTAAA
cleaved RNA product abundance [2]: 0.664
cleaved RNA product abundance [1]: 0.676

CGACATGTCCCGCTTCTTTCATTAATCCGTTAGCAAATGTTTTGCTATATACATTCACCTTTTAAGAGGAGGAAT
cleaved RNA product abundance [4]: 1.09

CGACATGTCCCGCTTCTTTCATTAATCCGTTACCAACTGTTTTGCTATATACATTTATCTTTTAAGAGGAGGAAT
cleaved RNA product abundance [4]: 0.306

ACAGACGAAGGAGCCGCAAAGAATTTATTAAGGGATGAATAAGCCCTCAATATAAATATCTCTCACTTATTTAAA
cleaved RNA product abundance [2]: 0.502
cleaved RNA product abundance [1]: 0.573

ACAGACGAAGGAGCCGCAAAGAAGTTATTAAGGGATTAATAATCACTCAATATAAATATCTCTCACTTATTTAAA
cleaved RNA product abundance [1]: 0.129

CGACATGTCCCGCTTCTTTCATTATTCCGTTAGCAACTGTTTTGTTATATACATTTACCTTTTAAGAGGAGGAAT
cleaved RNA product abundance [4]: 0.541

ACAGACGAAGGAGCCGCAAAGAAGTTATTAAGTGATGTATAATCCCTCAATATAAATATCTCTCACTTATTTAAA
cleaved RNA product abundance [2]: 0.088
cleaved RNA product abundance [1]: 0.144

ACAGACGAAGGAGCCGCAAAGAATTTATTAAGGCATGAATAATCCCTCAATATAAATATCTCTCACTTATTTAAA
cleaved RNA product abundance [2]: 0.1
cleaved RNA product abundance [1]: 0.111

CGACATGTCCCGCTTCTTTCATTAATCCGTTAGCAATTGTTTTGCTATATAAATTTACCTTTTAAGAGGAGGAAT
cleaved RNA product abundance [4]: 1.01

CGACATGTCCCGCTTCTTTCATTAATCCGTTAACATCTGTTTTGCTATATACATTTACCTTTTAAGAGGAGGAAT
cleaved RNA product abundance [4]: 0.25

ACAGACGAAGGAGCCGCAAAGAAGTTACTAAGGGATAAATAATCCCTCAATATAAATATCTCTCACTTATTTAAA
cleaved RNA product abundance [2]: 0.206
cleaved RNA product abundance [1]: 0.224

ACAGACGAAGGAGCCGCAAAGAAGTTATTAAGGGATGAATAATCCATCAAAATAAATATCTCTCACTTATTTAAA
cleaved RNA product abundance [2]: 0.132
cleaved RNA product abundance [1]: 0.221

ACAGACGAAGGAGCCGCAAAGAAGTTATTAAGGAATGAATGATCCCTCAATATAAATATCTCTCACTTATTTAAA
cleaved RNA product abundance [1]: 0.0629

ACAGACGAAGGAGCCGCAAAGTAGTTATTAAAGGATGAATAATCCATCAATATAAATATCTCTCACTTATTTAAA
cleaved RNA product abundance [1]: 0.153

ACAGACGAAGGAGCCGCAAAGAAGTTATTAAGGGATGAATACTCCATCAATATAAATATCTCTCACTTATTTAAA
cleaved RNA product abundance [2]: 0.102
cleaved RNA product abundance [1]: 0.137
cleaved RNA product abundance [3]: 0.152

ACAGACGAAGGAGCCGCAAAGAAGTTATTAAGGGATGATGAATCCCTCAATATAAATATCTCTCACTTATTTAAA
cleaved RNA product abundance [1]: 0.766

CGACATGTCCCGCTTCTTTCATTAATCCGTTAGCAACTATTTAGCTATATACATTTACCTTTTAAGAGGAGGAAT
cleaved RNA product abundance [4]: 1.01

ACAGACGAAGGAGCCGCAAAGAAGTTATTCAGGTATAAATAATCCCTCAATATAAATATCTCTCACTTATTTAAA
cleaved RNA product abundance [1]: 0.118

ACAGACGAAGGAGCCGCAAAGAAGGTATTAAGTGATGAATAATCCCTCAATATAAATATCTCTCACTTATTTAAA
cleaved RNA product abundance [1]: 0.104

ACAGACGAAGGAGCCGCAAAGAAGTTATTAAGGGATGAATAATCCATCAATAAAAATATCTCTCACTTATTTAAA
cleaved RNA product abundance [2]: 0.11
cleaved RNA product abundance [1]: 0.107

ACAGACGAAGGAGCCGCAAAGGAGTTAATAAGGGATGAATAATCCCTCAATATAAATATCTCTCACTTATTTAAA
cleaved RNA product abundance [2]: 0.34
cleaved RNA product abundance [1]: 0.436

ACAGACGAAGGAGCCGCGAAGAAGTTATTAATGGATGAATAATCCCTCAATATAAATATCTCTCACTTATTTAAA
cleaved RNA product abundance [1]: 0.214

ACAGACGAAGGAGCCGCAAAGAAGTTATTAAGGGATGATTAATCCCTCAATATAAATATCTCTCACTTATTTAAA
cleaved RNA product abundance [2]: 0.75
cleaved RNA product abundance [1]: 0.844
cleaved RNA product abundance [3]: 0.94

ACAGACGAAGGAGCCGCAAAGAAGTTATTAAGGGATGAATATTCCCTCCATATAAATATCTCTCACTTATTTAAA
cleaved RNA product abundance [1]: 0.193

ACAGACGAAGGAGCCGCAAAGAAGTTATTAAGCGATGAATAATCCCTCAATATTAATATCTCTCACTTATTTAAA
cleaved RNA product abundance [1]: 0.151
